16 molecules from US20210188980A1 (SHANGHAI EPIMAB BIOTHERAPEUTICS, published 2021) can be followed below.

For test [1], the target named is T1, human PD-1 expressed on cells (human, UniProt Q15116 25-288).
T1 construct: whole, on cells; also called CHO-K1/huPD-1; CHO-K1-hPD-1 cells
Put plainly: cell RBA FACS; competitor PD-L1/Fc.

The target in test [2] is T1, human PD-1 expressed on cells. Put plainly: cell RBA FACS; competitor PD-L2/Fc.
The target is the same in test [3]. Put plainly: cell RBA FACS, CHO-K1-huPD1; competitor biotin-PD-L1/Fc. The method, then: (§1) All 15 humanized antibodies and the chimeric antibody (mAb709c) were characterized by binding ELISA and cell-based RBA. For cell-based RBA, 2×10⁵ cells/well of CHO-K1-huPD1 cells were added to a pre-blocked 96-well round-bottomed plate and after washing, 50 μl antibodies with diluted concentration ranging from 0.064 nM to 200 nM were added to each well. Next, 50 μl of 60 μg/ml biotinylated PD-L1/Fc or biotinylated PD-L2/Fc protein were added. After gentle mixing and incubation at 4° C., the cells were washed and stained by Alexa Fluor™ 488 streptavidin solution (1:1000, ThermoFisher Scientific; Cat. No. S32354). Signals were readout by FACS and curves were fitted by GraphPad software. […] The association and dissociation rate constants, k (M⁻¹ s⁻¹) and koff(s⁻¹), respectively, were determined by making kinetic binding measurements at five different concentrations of human PD-1-His protein at a continuous flow rate of 30 μl/min. The equilibrium dissociation constant KD (M) of the reaction between antibodies and related target proteins was calculated from the kinetic rate constants using the formula KD=koff/kₒₙ. HumAb709-8 had minimal back-mutation(s) while maintaining to the greatest extent the affinity of the parental variable domains on chimeric mAb709c.

Test [4] concerns the target T2, human PD-1-His protein (human, UniProt Q15116 25-167, limits assumed).
T2 construct: also called huPD-1; not shown: His tag
In words: SPR Biacore, Ab captured, huPD-1-His analyte. The procedure: as §1
In general terms: In SPR one partner is held on a chip, and binding of the other changes the refractive index at the surface.

Test [5] deals with T1, human PD-1 expressed on cells. Put plainly: cell RBA FACS, CHO-K1-huPD1; competitor biotin-PD-L2/Fc. The method, then:
as §1

T2 sequence (Q15116 25-167 limits assumed): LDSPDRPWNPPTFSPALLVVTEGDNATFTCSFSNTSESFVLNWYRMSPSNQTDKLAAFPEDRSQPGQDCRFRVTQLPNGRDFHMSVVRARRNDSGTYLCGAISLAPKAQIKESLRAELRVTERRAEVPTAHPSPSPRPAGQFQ
T1 sequence (Q15116 25-288): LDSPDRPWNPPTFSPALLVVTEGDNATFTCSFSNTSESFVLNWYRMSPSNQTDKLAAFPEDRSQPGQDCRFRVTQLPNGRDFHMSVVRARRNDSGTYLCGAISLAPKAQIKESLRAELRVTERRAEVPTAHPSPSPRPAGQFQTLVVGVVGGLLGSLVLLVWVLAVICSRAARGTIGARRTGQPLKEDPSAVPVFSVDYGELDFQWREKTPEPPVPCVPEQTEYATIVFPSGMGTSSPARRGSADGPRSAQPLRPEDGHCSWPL

B1: HumAb713-14 (antibody, human IgG1, kappa, L234A L235A, V domains shown)
VH: EVQLVESGGGLVQPGGSLRLSCAASGFTFSDYGMHWVRQAPGKGLEWVSYISSGSYTIYYADTVKGRFTISRDNAKNSLYLQMNSLRDEDTAVYYCAKRGGSSHVNVMDYWGQGTTVTVSS
VL: DIQMTQSPSSLSASVGDRVTITCKASDHINNWLAWYQQKPGKAPKLLISGATSLETGVPSRFSGSGSGKDYTFTISSLQPEDIATYYCQQYWSPPYTFGGGTKVEIKR
notes: humanized mAb713
In the case of B1, the results for the IC50 in test [1] and in test [2] were 0.91 nM and 1.45 nM, respectively.

B2: HumAb713-16 (antibody, human IgG1, kappa, L234A L235A, V domains shown)
VH: EVQLVESGGGLVQPGGSLRLSCAASGFTSSDYGMHWVRQAPGKGLEWVAYISSGSYTIYYADTVKGRFTISRDNAKNSLYLQMNSLRDEDTAVYYCAKRGGSSHVNVMDYWGQGTTVTVSS
VL: DIQMTQSPSSLSASVGDRVTITCKASDHINNWLAWYQQKPGKAPKLLISGATSLETGVPSRFSGSGSGKDYTFTISSLQPEDIATYYCQQYWSPPYTFGGGTKVEIKR
notes: humanized mAb713
With B2, the figures for the IC50 in test [1] and in test [2] were 0.65 nM and 1.63 nM, respectively.

B3: HumAb713-15 (antibody, human IgG1, kappa, L234A L235A, V domains shown)
VH: EVQLVESGGGLVQPGGSLRLSCAASGFTSSDYGMHWVRQAPGKGLEWVSYISSGSYTIYYADTVKGRFTISRDNAKNSLYLQMNSLRDEDTAVYYCAKRGGSSHVNVMDYWGQGTTVTVSS
VL: DIQMTQSPSSLSASVGDRVTITCKASDHINNWLAWYQQKPGKAPKLLISGATSLETGVPSRFSGSGSGKDYTFTISSLQPEDIATYYCQQYWSPPYTFGGGTKVEIKR
notes: humanized mAb713
In the case of B3, the values for the IC50 in test [1] and in test [2] were 0.88 nM and 1.65 nM, respectively.

B4: HumAb709-7 (antibody, human IgG1, kappa, L234A L235A, V domains shown)
VH: EVQLVESGGGLVQPGGSLRLSCAASGFTFSFYTMSWVRQAPGKGLEWVATISGGGRDTYYPDSVKGRFTISRDNAKNSLYLQMNSLRAEDTAVYYCARQGGNYLFAYWGQGTLVTVSS
VL: DIVMTQSPSSLSASVGDRVTITCKASQDVNTVVAWYQQKPGKAPKVLISWASTRHTGVPSRFSGSGSGTDYTLTISSLQPEDFATYYCQQHYTTPYTFGGGTKVEIKR
notes: humanized mAb709
Consider B4, for which the IC50 (commonly the point on the concentration scale where inhibition reaches its midpoint) in test [3] was 0.4 nM. Further, in test [4], binding was characterised by a dissociation constant (Kd) of 2.36 nM; the koff (as a rule, the rate constant with which the complex falls apart) turned out to be 0.000336 s⁻¹; the kon – broadly, a measure of how fast the partners come together – is 141000 M⁻¹ s⁻¹. In test [5], this molecule displayed an IC50 of 0.84 nM.

B5: HumAb709-11 (antibody, human IgG1, kappa, L234A L235A, V domains shown)
VH: EVQLVESGGGLVQPGGSLRLSCAASGFTFSFYTMSWVRQAPGKGLEWVATISGGGRDTYYPDSVKGRFTISRDNAKNSLYLQMNSLRAEDTAVYYCAGQGGNYLFAYWGQGTLVTVSS
VL: DIVMTQSPSSLSASVGDRVTITCKASQDVNTVVAWYQQKPGKAPKVLISWASTRHTGVPSRFTGSGSGTDYTLTISSLQPEDFATYYCQQHYTTPYTFGGGTKVEIKR
notes: humanized mAb709
As to B5, the IC50 is 0.55 nM in test [3] and 0.92 nM in test [5].

B6: HumAb709-3 (antibody, human IgG1, kappa, L234A L235A, V domains shown)
VH: EVQLVESGGGLVQPGGSLRLSCAASGFTFSFYTMSWVRQAPGKRLEWVATISGGGRDTYYPDSVKGRFTISRDNAKNSLYLQMNSLRAEDTAVYYCAGQGGNYLFAYWGQGTLVTVSS
VL: DIQMTQSPSSLSASVGDRVTITCKASQDVNTVVAWYQQKPGKAPKLLIYWASTRHTGVPSRFSGSGSGTDYTLTISSLQPEDFATYYCQQHYTTPYTFGGGTKVEIKR
notes: humanized mAb709
For the molecule B6, the figures for the IC50 in test [3] and in test [5] were 1.25 nM and 1.64 nM, respectively.

B7: HumAb709-1 (antibody, human IgG1, kappa, L234A L235A, V domains shown)
VH: EVQLVESGGGLVQPGGSLRLSCAASGFTFSFYTMSWVRQAPGKGLEWVATISGGGRDTYYPDSVKGRFTISRDNAKNSLYLQMNSLRAEDTAVYYCARQGGNYLFAYWGQGTLVTVSS
VL: DIQMTQSPSSLSASVGDRVTITCKASQDVNTVVAWYQQKPGKAPKLLIYWASTRHTGVPSRFSGSGSGTDYTLTISSLQPEDFATYYCQQHYTTPYTFGGGTKVEIKR
notes: humanized mAb709
Turning to B7, the IC50 in test [3] is 1.02 nM. Besides, in test [4], binding was put at a Kd of 11 nM, the koff is 0.00215 s⁻¹ and the kon is 195000 M⁻¹ s⁻¹. This molecule also came in with an IC50 in test [5] of 1.64 nM.

B8: HumAb709-9 (antibody, human IgG1, kappa, L234A L235A, V domains shown)
VH: EVQLVESGGGLVQPGGSLRLSCAASGFTFSFYTMSWVRQAPGKRLEWVATISGGGRDTYYPDSVKGRFTISRDNAKNSLYLQMNSLRAEDTAVYYCAGQGGNYLFAYWGQGTLVTVSS
VL: DIVMTQSPSSLSASVGDRVTITCKASQDVNTVVAWYQQKPGKAPKVLISWASTRHTGVPSRFSGSGSGTDYTLTISSLQPEDFATYYCQQHYTTPYTFGGGTKVEIKR
notes: humanized mAb709
As to B8, the IC50 in test [3] was determined as 1.04 nM; in test [5] it was 1.76 nM.

B9: HumAb709-2 (antibody, human IgG1, kappa, L234A L235A, V domains shown)
VH: EVQLVESGGGLVQPGGSLRLSCAASGFTFSFYTMSWVRQAPGKGLEWVATISGGGRDTYYPDSVKGRFTISRDNAKNSLYLQMNSLRAEDTAVYYCAGQGGNYLFAYWGQGTLVTVSS
VL: DIQMTQSPSSLSASVGDRVTITCKASQDVNTVVAWYQQKPGKAPKLLIYWASTRHTGVPSRFSGSGSGTDYTLTISSLQPEDFATYYCQQHYTTPYTFGGGTKVEIKR
notes: humanized mAb709
On to B9, for which the IC50 in test [3] was 0.47 nM. In addition, in test [4], the Kd (as a rule, the constant that tells how readily two partners part at equilibrium) was 0.684 nM; the koff came out at 5.5e-05 s⁻¹; the kon was found to be 80300 M⁻¹ s⁻¹. Besides, the half-maximal inhibitory concentration (IC50) in test [5] worked out at 0.99 nM.

B10: HumAb709-5 (antibody, human IgG1, kappa, L234A L235A, V domains shown)
VH: EVQLVESGGGLVQPGGSLRLSCAASGFTFSFYTMSWVRQAPGKGLEWVATISGGGRDTYYPDSVKGRFTISRDNAKNSLYLQMNSLRAEDTAVYYCAGQGGNYLFAYWGQGTLVTVSS
VL: DIQMTQSPSSLSASVGDRVTITCKASQDVNTVVAWYQQKPGKAPKLLISWASTRHTGVPSRFSGSGSGTDYTLTISSLQPEDFATYYCQQHYTTPYTFGGGTKVEIKR
notes: humanized mAb709
Turning to B10, the IC50 worked out at 0.67 nM in test [3] and 0.97 nM in test [5].

B11: HumAb709-15 (antibody, human IgG1, kappa, L234A L235A, V domains shown)
VH: EVQLVESGGGLVQPGGSLRLSCAASGFTFSFYTMSWVRQAPGKRLEWVATISGGGRDTYYPDSVKGRFTISRDNAKNSLYLQMNSLRAEDTAVYYCAGQGGNYLFAYWGQGTLVTVSS
VL: DIVMTQSPSSLSASVGDRVTITCKASQDVNTVVAWYQQKPGKSLKVLISWASTRHTGVPSRFTGSGSGTDYTLTISSLQPEDFATYYCQQHYTTPYTFGGGTKVEIKR
notes: humanized mAb709
As for B11, the results for the IC50 in test [3] and in test [5] were 0.9 nM and 1.21 nM, respectively.

B12: HumAb709-13 (antibody, human IgG1, kappa, L234A L235A, V domains shown)
VH: EVQLVESGGGLVQPGGSLRLSCAASGFTFSFYTMSWVRQAPGKGLEWVATISGGGRDTYYPDSVKGRFTISRDNAKNSLYLQMNSLRAEDTAVYYCARQGGNYLFAYWGQGTLVTVSS
VL: DIVMTQSPSSLSASVGDRVTITCKASQDVNTVVAWYQQKPGKSLKVLISWASTRHTGVPSRFTGSGSGTDYTLTISSLQPEDFATYYCQQHYTTPYTFGGGTKVEIKR
notes: humanized mAb709
In the case of B12, the IC50 in test [3] turned out to be 0.5 nM; in test [5], 0.78 nM.

B13: HumAb709-6 (antibody, human IgG1, kappa, L234A L235A, V domains shown)
VH: EVQLVESGGGLVQPGGSLRLSCAASGFTFSFYTMSWVRQAPGKRLEWVATISGGGRDTYYPDSVKGRFTISRDNAKNSLYLQMNSLRAEDTAVYYCAGQGGNYLFAYWGQGTLVTVSS
VL: DIQMTQSPSSLSASVGDRVTITCKASQDVNTVVAWYQQKPGKAPKLLISWASTRHTGVPSRFSGSGSGTDYTLTISSLQPEDFATYYCQQHYTTPYTFGGGTKVEIKR
notes: humanized mAb709
Regarding B13, the IC50 in test [3] was 1.23 nM; in test [5] it was 1.26 nM.

B14: HumAb709-4 (antibody, human IgG1, kappa, L234A L235A, V domains shown)
VH: EVQLVESGGGLVQPGGSLRLSCAASGFTFSFYTMSWVRQAPGKGLEWVATISGGGRDTYYPDSVKGRFTISRDNAKNSLYLQMNSLRAEDTAVYYCARQGGNYLFAYWGQGTLVTVSS
VL: DIQMTQSPSSLSASVGDRVTITCKASQDVNTVVAWYQQKPGKAPKLLISWASTRHTGVPSRFSGSGSGTDYTLTISSLQPEDFATYYCQQHYTTPYTFGGGTKVEIKR
notes: humanized mAb709
As to B14, the IC50 in test [3] is 0.78 nM; in test [5] it was 1.68 nM.

B15: HumAb709-14 (antibody, human IgG1, kappa, L234A L235A, V domains shown)
VH: EVQLVESGGGLVQPGGSLRLSCAASGFTFSFYTMSWVRQAPGKGLEWVATISGGGRDTYYPDSVKGRFTISRDNAKNSLYLQMNSLRAEDTAVYYCAGQGGNYLFAYWGQGTLVTVSS
VL: DIVMTQSPSSLSASVGDRVTITCKASQDVNTVVAWYQQKPGKSLKVLISWASTRHTGVPSRFTGSGSGTDYTLTISSLQPEDFATYYCQQHYTTPYTFGGGTKVEIKR
notes: humanized mAb709
As for B15, the IC50 was found to be 0.51 nM in test [3] and 0.92 nM in test [5].

B16: HumAb709-12 (antibody, human IgG1, kappa, L234A L235A, V domains shown)
VH: EVQLVESGGGLVQPGGSLRLSCAASGFTFSFYTMSWVRQAPGKRLEWVATISGGGRDTYYPDSVKGRFTISRDNAKNSLYLQMNSLRAEDTAVYYCAGQGGNYLFAYWGQGTLVTVSS
VL: DIVMTQSPSSLSASVGDRVTITCKASQDVNTVVAWYQQKPGKAPKVLISWASTRHTGVPSRFTGSGSGTDYTLTISSLQPEDFATYYCQQHYTTPYTFGGGTKVEIKR
notes: humanized mAb709; also called HuntAb709-12
Consider B16, for which the IC50 in test [3] was determined as 0.45 nM; in test [5] it was 1.35 nM.
